# Test results reported in PMC5481773 (2017).
# B1: FEN1 PIP box peptide used for ITC (peptide)
# chain: QGSTQGRLDDFFKVT
# modifications: Exact limits are in the supplement. Window is the 15-mer homologous to ZRANB3 515-529, aligned on Q337. Termini chemistry not stated.
# B2: Polι PIP box peptide used for ITC (peptide)
# chain: NTAKKGLIDYYLMPS
# modifications: Exact limits are in the supplement. Window is the 15-mer homologous to ZRANB3 515-529 (equal lengths stated); the PIP box KGLIDYYL is 421-428 in 715-aa numbering, +25 in the 740-aa entry. Check residues are not named in the paper. Termini chemistry not stated.
# B3: p21 PIP box peptide used for ITC (peptide)
# chain: RKRRQTSMTDFYHSK
# modifications: Exact limits are in the supplement. Window is the 15-mer homologous to ZRANB3 515-529, aligned on Q144. Check residues are not named in the paper. Termini chemistry not stated.
# Biological target: His-tagged Proliferating Cell Nuclear Antigen (PCNA) (human, UniProt P12004 1-261)
# Sequence (P12004 whole entry): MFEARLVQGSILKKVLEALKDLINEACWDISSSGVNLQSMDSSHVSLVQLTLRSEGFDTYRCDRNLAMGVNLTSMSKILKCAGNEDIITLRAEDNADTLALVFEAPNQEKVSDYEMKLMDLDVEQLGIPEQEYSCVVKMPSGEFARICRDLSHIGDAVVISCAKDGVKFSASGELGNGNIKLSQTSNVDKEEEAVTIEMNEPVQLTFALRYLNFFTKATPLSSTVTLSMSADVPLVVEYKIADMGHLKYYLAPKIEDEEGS
# Assay: ITC
row,Kd,Binder
1,17.3 µM,B1
2,5.45 µM,B2
3,0.275 µM,B3
